According to patent publication US20230357364A1 (INTERNATIONAL AIDS VACCINE INITIATIVE, published 2023):
Numbering of substitutions follows the chain as printed.

B1: L6.P4A3.1 (antibody, V domains shown)
VH: QVQLVQSGAEVKKPGSSVKVSCKASGGIFSSSAISWVRQAPGQGLEWMGGIIPILDISNYAQKFQGRVTITADKSTSTAFMELSSLRSEDTAVYYCALTNQWDLLVYWGQGTLVTVSS
VL: EIVLTQSPGTLSLSPGERATLSCRASQRVSSSYLAWYQQKPGQAPRLLIYGAESRATGIPDRFSGSGSGTDFTLTISRLEPEDFAVYYCQHYGSSLWTFGQGTKLEIK
B2: L6.P4A3.2 (antibody, V domains shown)
VH: B1 VH with S25P, I28T, G50T, S58T, L98Q, T99R
VL: B1 VL with R28S, S31A, L96R
B3: L6.P4A3.8 (antibody, V domains shown)
VH: B1 VH with A24V, I28T, G50K, S58T, T99R
VL: B1 VL with R28S, S32H, L96P
B4: L6.P4A3.3 (antibody, V domains shown)
VH: B1 VH with S25P, I28T, S58T, N59H, T99R
VL: B1 VL with R28D, L96E
B5: L6.P4A3.b (antibody, V domains shown)
VH: B1 VH with S25P, I28T, S58T, N59T, T99R, V106I
VL: B1 VL with R28S, S32H, E53S, A56Y, L96H
B6: L6.P4A3.7 (antibody, V domains shown)
VH: B1 VH with I57Y, S58T, T99R
VL: B1 VL with R28E, L96A
B7: L6.P4A3.12 (antibody, V domains shown)
VH: B1 VH with I28L, S58T
VL: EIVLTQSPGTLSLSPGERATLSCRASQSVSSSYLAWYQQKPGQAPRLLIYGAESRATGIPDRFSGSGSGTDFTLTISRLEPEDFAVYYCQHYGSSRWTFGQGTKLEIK
B8: L6.P4A3.5 (antibody, V domains shown)
VH: B1 VH with S25V, I28T, S35Y, S58A, T99R, L105V
VL: B1 VL with R24H, R28S, L96T
B9: L6.P4A3.9 (antibody, V domains shown)
VH: B1 VH with A24S, I28T, I34Y, G50T, S58T, L98Q, T99R, L105I
VL: B1 VL with R28W, L34I, L96S

target: human insulin (human, UniProt P01308 25-54; P01308 90-110); assay: polyreactivity ELISA
Sequence (P01308 25-54 limits assumed, chain 1 of 2): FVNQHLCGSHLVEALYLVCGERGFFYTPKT
Sequence (P01308 90-110 limits assumed, chain 2 of 2): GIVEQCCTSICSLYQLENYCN

Binder | binding result
B1 | no binding
B2 | no binding
B3 | no binding
B4 | no binding
B5 | no binding
B6 | no binding
B7 | no binding
B8 | no binding
B9 | no binding
